From US20200087373A1 (UNIVERSITY OF COPENHAGEN, published 2020)
Ends that are not written are not given here. * marks the point of attachment. C16 diacid = O=C(O)CCCCCCCCCCCCCCC(=O)*; Palmitoyl = CCCCCCCCCCCCCCCC(=O)*

Molecular target: T1, human serum albumin (human, UniProt P02768 25-609)
T1 construct: also called HSA; human albumin
Experiment: 125I-human GIP competition binding on hGIPR COS-7 cells with and without 2% HSA; fold change of IC50 taken as HSA binding

T1 sequence (P02768 25-609 limits assumed): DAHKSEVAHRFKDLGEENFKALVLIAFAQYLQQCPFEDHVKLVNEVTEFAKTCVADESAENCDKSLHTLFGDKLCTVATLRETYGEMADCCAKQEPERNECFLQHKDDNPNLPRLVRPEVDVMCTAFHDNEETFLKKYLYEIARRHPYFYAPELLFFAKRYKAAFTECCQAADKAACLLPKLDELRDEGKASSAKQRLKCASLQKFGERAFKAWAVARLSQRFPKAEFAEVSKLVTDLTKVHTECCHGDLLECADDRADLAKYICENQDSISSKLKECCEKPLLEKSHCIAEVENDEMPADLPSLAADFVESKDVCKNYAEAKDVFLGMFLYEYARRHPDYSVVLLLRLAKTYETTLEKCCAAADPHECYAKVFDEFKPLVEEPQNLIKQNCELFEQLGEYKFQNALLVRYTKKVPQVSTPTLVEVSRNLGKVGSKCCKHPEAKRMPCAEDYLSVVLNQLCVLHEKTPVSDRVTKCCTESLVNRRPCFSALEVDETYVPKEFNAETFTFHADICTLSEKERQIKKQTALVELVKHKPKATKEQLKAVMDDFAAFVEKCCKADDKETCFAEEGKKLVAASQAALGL

Row | Binder | binding result
1 | EGTFISDYSIAMDKIK(Palmitoyl)QQDFVNWLLAQK-NH2 (N-terminus assumed; SMILES CCCCCCCCCCCCCCCC(=O)NCCCC[C@H](NC(=O)[C@@H](NC(=O)[C@H](CCCCN)NC(=O)[C@H](CC(=O)O)NC(=O)[C@H](CCSC)NC(=O)[C@H](C)NC(=O)[C@@H](NC(=O)[C@H](CO)NC(=O)[C@H](Cc1ccc(O)cc1)NC(=O)[C@H](CC(=O)O)NC(=O)[C@H](CO)NC(=O)[C@@H](NC(=O)[C@H](Cc1ccccc1)NC(=O)[C@@H](NC(=O)CNC(=O)[C@@H](N)CCC(=O)O)[C@@H](C)O)[C@@H](C)CC)[C@@H](C)CC)[C@@H](C)CC)C(=O)N[C@@H](CCC(N)=O)C(=O)N[C@@H](CCC(N)=O)C(=O)N[C@@H](CC(=O)O)C(=O)N[C@@H](Cc1ccccc1)C(=O)N[C@H](C(=O)N[C@@H](CC(N)=O)C(=O)N[C@@H](Cc1c[nH]c2ccccc12)C(=O)N[C@@H](CC(C)C)C(=O)N[C@@H](CC(C)C)C(=O)N[C@@H](C)C(=O)N[C@@H](CCC(N)=O)C(=O)N[C@@H](CCCCN)C(N)=O)C(C)C) [AT117 [hGIP(3-30)NH2[H18K]-C16/18]] | binds
2 | TFISK(C16 diacid)YSIAMDKIHQQDFVNWLLAQK-NH2 (N-terminus assumed; SMILES CC[C@H](C)[C@H](NC(=O)[C@H](CO)NC(=O)[C@H](Cc1ccc(O)cc1)NC(=O)[C@H](CCCCNC(=O)CCCCCCCCCCCCCCC(=O)O)NC(=O)[C@H](CO)NC(=O)[C@@H](NC(=O)[C@H](Cc1ccccc1)NC(=O)[C@@H](N)[C@@H](C)O)[C@@H](C)CC)C(=O)N[C@@H](C)C(=O)N[C@@H](CCSC)C(=O)N[C@@H](CC(=O)O)C(=O)N[C@@H](CCCCN)C(=O)N[C@H](C(=O)N[C@@H](Cc1c[nH]cn1)C(=O)N[C@@H](CCC(N)=O)C(=O)N[C@@H](CCC(N)=O)C(=O)N[C@@H](CC(=O)O)C(=O)N[C@@H](Cc1ccccc1)C(=O)N[C@H](C(=O)N[C@@H](CC(N)=O)C(=O)N[C@@H](Cc1c[nH]c2ccccc12)C(=O)N[C@@H](CC(C)C)C(=O)N[C@@H](CC(C)C)C(=O)N[C@@H](C)C(=O)N[C@@H](CCC(N)=O)C(=O)N[C@@H](CCCCN)C(N)=O)C(C)C)[C@@H](C)CC) [AT171 [hGIP(5-30)NH2[D9K]-C16diacid/9]] | binds
3 | TFISDYSIAMDKIHQQK(C16 diacid)FVNWLLAQK-NH2 (N-terminus assumed; SMILES CC[C@H](C)[C@H](NC(=O)[C@H](CO)NC(=O)[C@H](Cc1ccc(O)cc1)NC(=O)[C@H](CC(=O)O)NC(=O)[C@H](CO)NC(=O)[C@@H](NC(=O)[C@H](Cc1ccccc1)NC(=O)[C@@H](N)[C@@H](C)O)[C@@H](C)CC)C(=O)N[C@@H](C)C(=O)N[C@@H](CCSC)C(=O)N[C@@H](CC(=O)O)C(=O)N[C@@H](CCCCN)C(=O)N[C@H](C(=O)N[C@@H](Cc1c[nH]cn1)C(=O)N[C@@H](CCC(N)=O)C(=O)N[C@@H](CCC(N)=O)C(=O)N[C@@H](CCCCNC(=O)CCCCCCCCCCCCCCC(=O)O)C(=O)N[C@@H](Cc1ccccc1)C(=O)N[C@H](C(=O)N[C@@H](CC(N)=O)C(=O)N[C@@H](Cc1c[nH]c2ccccc12)C(=O)N[C@@H](CC(C)C)C(=O)N[C@@H](CC(C)C)C(=O)N[C@@H](C)C(=O)N[C@@H](CCC(N)=O)C(=O)N[C@@H](CCCCN)C(N)=O)C(C)C)[C@@H](C)CC) [AT181 [hGIP(5-30)NH2[D21K]-C16diacid/21]] | binds

Other lines, results leading:

Row | binding result | Binder
4 | binds | TFISDYK(C16 diacid)IAMDKIHQQDFVNWLLAQK-NH2 (N-terminus assumed; SMILES CC[C@H](C)[C@H](NC(=O)[C@H](CCCCNC(=O)CCCCCCCCCCCCCCC(=O)O)NC(=O)[C@H](Cc1ccc(O)cc1)NC(=O)[C@H](CC(=O)O)NC(=O)[C@H](CO)NC(=O)[C@@H](NC(=O)[C@H](Cc1ccccc1)NC(=O)[C@@H](N)[C@@H](C)O)[C@@H](C)CC)C(=O)N[C@@H](C)C(=O)N[C@@H](CCSC)C(=O)N[C@@H](CC(=O)O)C(=O)N[C@@H](CCCCN)C(=O)N[C@H](C(=O)N[C@@H](Cc1c[nH]cn1)C(=O)N[C@@H](CCC(N)=O)C(=O)N[C@@H](CCC(N)=O)C(=O)N[C@@H](CC(=O)O)C(=O)N[C@@H](Cc1ccccc1)C(=O)N[C@H](C(=O)N[C@@H](CC(N)=O)C(=O)N[C@@H](Cc1c[nH]c2ccccc12)C(=O)N[C@@H](CC(C)C)C(=O)N[C@@H](CC(C)C)C(=O)N[C@@H](C)C(=O)N[C@@H](CCC(N)=O)C(=O)N[C@@H](CCCCN)C(N)=O)C(C)C)[C@@H](C)CC) [AT173 [hGIP(5-30)NH2[S11K]-C16diacid/11]]
5 | binds | TFISDYSIK(C16 diacid)MDKIHQQDFVNWLLAQK-NH2 (N-terminus assumed; SMILES CC[C@H](C)[C@H](NC(=O)[C@H](CCCCN)NC(=O)[C@H](CC(=O)O)NC(=O)[C@H](CCSC)NC(=O)[C@H](CCCCNC(=O)CCCCCCCCCCCCCCC(=O)O)NC(=O)[C@@H](NC(=O)[C@H](CO)NC(=O)[C@H](Cc1ccc(O)cc1)NC(=O)[C@H](CC(=O)O)NC(=O)[C@H](CO)NC(=O)[C@@H](NC(=O)[C@H](Cc1ccccc1)NC(=O)[C@@H](N)[C@@H](C)O)[C@@H](C)CC)[C@@H](C)CC)C(=O)N[C@@H](Cc1c[nH]cn1)C(=O)N[C@@H](CCC(N)=O)C(=O)N[C@@H](CCC(N)=O)C(=O)N[C@@H](CC(=O)O)C(=O)N[C@@H](Cc1ccccc1)C(=O)N[C@H](C(=O)N[C@@H](CC(N)=O)C(=O)N[C@@H](Cc1c[nH]c2ccccc12)C(=O)N[C@@H](CC(C)C)C(=O)N[C@@H](CC(C)C)C(=O)N[C@@H](C)C(=O)N[C@@H](CCC(N)=O)C(=O)N[C@@H](CCCCN)C(N)=O)C(C)C) [AT175 [hGIP(5-30)NH2[A13K]-C16diacid/13]]
